Assay results taken from patent KR20220012792A (dated 2022).
Where two headings read alike, the source gives them in different places.

Assays:
Assay in all cases: cell-based or functional assay
[1] = molecular target: T1, S 단백질 of SARS-CoV-2 hCoV-19/South Korea/KUMC17/2020 (614G) (SARS-CoV-2)
[2] = molecular target: T1, S 단백질 of SARS-CoV-2 hCoV-19/South …; remark: listed apart in the source
[3] = molecular target: T1, S 단백질 of SARS-CoV-2 hCoV-19/South …; remark: listed apart in the source
[4] = molecular target: S 단백질 of SARS-CoV-2 hCoV-19/South Korea/KCDC9481/2020 (614G, G형) (SARS-CoV-2)
[5] = molecular target: T2, S 단백질 of SARS-CoV-2 hCoV-19/Korea/KCDC10847/2020 (GH형) (SARS-CoV-2)
[6] = molecular target: T1, S 단백질 of SARS-CoV-2 hCoV-19/South …; remark: listed apart in the source
[7] = molecular target: T2, S 단백질 of SARS-CoV-2 …; remark: listed apart in the source
[8] = molecular target: S 단백질 of SARS-CoV-2 영국변이바이러스주 hCoV-19/South Korea/KDCA0838/2020 (SARS-CoV-2)

B1: No. 139 항체 (Full IgG) (antibody, V domains shown)
VH: QITLKESGPTLVKPTQTLTLTCSFSGFSLSTSGVGVGWIRQPPGKALEWLALIDWDDNKYHTTSLKTRLTISKDTSKNQVVLTMTNMDPVDTATYYCARIPGFLRYRNRYYYYGMDVWGQGTTVTVSS
VL: ELVLTQPPSVSAAPGQKVTISCSGSSSNIGNNYVSWYQQLPGTAPKLLIYDNNKRPSGIPDRFSGSKSGTSATLGITGLQTGDEADYYCGTWDSSLSAGVFGGGTELTVL
IC50, PRNT [1]: 5.73 ng/mL | IC50 (ng/ml), PRNT [2]: 3.37 ng/mL | IC50 (ng/ml), PRNT [3]: 5.77 ng/mL | IC50 (ng/ml), PRNT [4]: 10.6 ng/mL | IC50 (ng/ml), PRNT [5]: 10.4 ng/mL | IC50 (ng/ml), PRNT [6]: 4.22 ng/mL | IC50 (ng/ml), PRNT [7]: 9.31 ng/mL | IC50 (ng/ml), PRNT [8]: 9.62 ng/mL
